Target: Tissue Factor VIIa (UniProt P13726)
Test: enzyme inhibition; Tissue Factor VIIa

B1: recombinant placental bikunin (1-170) from baculovirus/Sf9 cells (protein)
chain: ADRERSIHDFCLVSKVVGRCRASMPRWWYNVTDGSCQLFVYGGCDGNSNNYLTKEECLKKCATVTENATGDLATSRNAADSSVPSAPRRQDSEDHSSDMFNYEEYCTANAVTGPCRASFPRWYFDVERNSCNNFIYGGCRGNKNSYRSEEACMLRCFRQQENPPLPLGSK
modifications: chain 1 pos 30: Asn probably N-glycosylated (no PTH residue at cycle 30), written N; six intrachain disulfides of the two Kunitz domains
Binder B1 has a Ki of 800 nM.

— patent publication US7019123
